Measured values: the DeepSol protein solubility set

Assay: soluble on expression in E. coli; label from the status in PepcDB or PDB records

| Sequence | soluble on expression in E. coli |
| --- | --- |
| MRKPRITYLDVWANDERIGTLEKGAMYRFAYDNPNSSLLGLHYQDRSKVYISNNMPHIFAQYFPEGFLDAHITSKYAFHDAPFEDNEMLRLAILCRETLGRIHVRCNDPLFNEWIDGLEMKNPRILTERDLLGINARQVFQQYMAEIFHHGRFVSVSGIQQKMSLDAIRRNTKQTASYIAKGFDASEYPCLAANEFLCMQTIKQAGIAVAQTSLSEDSSVLLVRRFDVSEQGYFLGMEDFTSLRQYSVEDKYKGSYAAIAQIIRQISGRPDEDLIHFFNQLAASCILKNGDAHLKNFSVLYHDEYDVRLAPVYDVLDTSIYRVGTQGIFDAYDDTLALNLTNHGKKTYPSKNTLLDFAEKYCDLGREDASFMIDTIVQAKEQVLVKYSDVLRENEWLAQKWHFIPDENEEGLPFTFR | not soluble |
| MVRAPIDGIVANRSAHTGSWVEGGTSLVSLVPVSELWVDANYKENQIAGMKPGMKAEIRADILKGEVFHGHIESLSPATGASFSLIPIENATGNFTKIVQRVPVRIAFDDAKELKQLLRPGLSVTVSVDER | not soluble |
| MGSDKIHHHHHHMEAKKSKAIVFSGVNQIELREVTLKPVSSTDVLVETWWSSISTGTEKMALNGLIPSPPFIFPFIPGYETVGRIVEAGDHVNQGLIGKFAYVAGSFGYEDVNAAFGGASQFIVCPVESLTVLDGIANPQCGIALPLGATALHIVDLAEVKNRKVLVLGQGAVGILAAELAKRFGASLVAVTEPHQRRLDISTSDIKVNPEKQDVSVALAGHEFDVLIDSTGIMSAIETGLRFLKFHGKVIFGGYYQRMNIDYSQAFNKELSFIAARQWAKGDLHRVRELIAAGKINAEKIFTHQCTVDDNLMEAYMQAFSDSDCLKMIIHWKHGNEAGEHFPTCNTAN | not soluble |
| MSRHPLKIVIAGAGIGGLAAAACLKAAGFEVELYERARELRAVGSALSLMPNALTALERVGVRPDLTRAQAFDSLRFLTRRGRPIRAIDFGGLARQLGQPSLAIHRASLQQALLEQARDCRIELGVSATGYLRHADGEGVTVLCSDGREVHADVLIGADGFNSAIRATMTGPERPTDWHYVIWRATPAFRHPKVTPGYVAHYWGRGQRFGLADIGEGNVYWWGTRNMPAEQAKDWRGGKAGIQRLYAGWADEVQAVIEATPEADISSLPAQDRPFLERWGDGPVTLLGDAAHPMLTSLGQGAAIAIEDAAVLAHCLATIDDPQAALRAYENRRRDRARAMVETSRALSRIEQLEHPLRTVARDLYFRFAPERTFARQNELALTFPGVELEHHHHHH | not soluble |
| RILYRHSNAMQHEYNQMMQSIDERKQYQVGKIKMGTGDAWWPLFVKQALNEHLTKQPSASTHVEFGNHLGLMDSLINEQIEFFIGHEIVGLSSKCDVTFIPLFQTVDAYFVSSNHPLLGKTVTEEMLHEYPALSVTYDAKKFAHVIDNPIPKQNERERQQLDDRPTYEVDSLLASIDVLKESVAVMSYTRHLQSYLESFGLRCLTMENEPNPGTVGIYRHRRETSESHLDLIAGITQRAKLLN | not soluble |
| MALPESESARTEQALGRLVGSLCVVTAQQGELSSAMLASWVSQATFSPPGLTVAVAKERAIESLLHKNSCFVLNILQEGNHLGLMKHFLKPFAPGGDRFADVATETAENGAPILTESLAYLECRVQQRLECGDHWVLYAVTDRGALLKDGVTAVHHRKSGDHYLEHHHHHH | not soluble |
| MHELFHPIFANGEEKAALQQLIIALDASGKRYFLRNEILHTFSQYCQQAQKPTYFYYSSSVGKLIQYTHEIVLAEDGTWFVVRPRIASQEVWRLTSDLAKFDSMSIDAFLDVSDRLVNAYEPNILEIDLNSFYEASPSISDPRNIGQGLAFLNRYLCSQIATDPQYWVELVYLALRGLQYDGINLMIGDAIPSGIHLAKQIHAAIKFLSALPPEEPYEKFYIELQKLGFEPGWGNTAQRILETITLLDKLIDSPQPAVLEAFVARVPAVFRVVLVSIHGWVAQEDVMGRDETLGQVIYVLEQARSLENKLQQEIKLAGLEVLGIQPHVIILTRLIPNCEGTYCNLRLEKLHNTENAWILRVPFGEFNPEITNNWISKFEIWPYLETFALDAEKQLLAQFQGKPNLIIGNYSDGNLVAFLLARRLKVTHCNIAHSLEKPKNLFSNLYWQDSEEKYHFSVQFTADLITMNAADFIITSSYQEIFGTPESIGQYESYKFFTMPHLYHVVDGIDLFNPKFNMVPPGVNEQVFFPYSQTADRDPNVSKHVHDLLEHHHHHH | not soluble |
| LITPQYKSEAKLYILSKETTLTSLADLQIGSQLTQDYKVLVSSRPVMEGVINHLKLDYSYKELAGKLTVENPQNTRILSLTVRDENPYMAKQIVDDIANTASDYIGEIMEMVPPKMIEDGVVASEPYSPSIKRN | not soluble |
| KFFNLFLKKGNKINPLIGNAGVSAVPDSARISQVIGLEYDPTNYLLMHAM | not soluble |
| MDTNFKLSNCIGTVYRDGQVAFSKDGYSVISPIGNKLSIFDLRNNTSKTLDIDCNYNIKRLSISPSGYHLLASDERGVVHFVHLLSEFKIYTFRSNKPIGSLQWSPDATRVAICRENDLQIHEFGKSIENKVYNPFSLSRTYKLSSDSLKTIDWSDDANLLVSGGEDRVVRVVGAKDFKNLFIHPLASHKGYIVNCQFMKNSYDMITVCKRGLANVWTCNLRPGELVEGIWKKDEEGSDDIEMLEDGEQKVEKIFFEKTKKYWLSESSGSGKSVDVTAARFHKETNILATAFNNGVIVLHEIPSFALVHNLRVSEMRIQTVAWNLTGDWLAIGCGKGSTAQLVVWEWQSESYVMKQQAHSLRITTAEYSPDGSLMATGAEDGKVKIWNSRSSFCTVTFDEHTSGVTAVKWTQSGRAILSASLDGTVRAHDLKRYRNFRTLVCPEPTQLATLAVDKAGDLVIAGAKEVFNIYIWSFETGHLLDILSGHESAISSIDIHGNHIVSGSWDRTIKMWTIVDSQAETVEVSHEALDVKFSPAGDEIAVLTSDGVITFFEAKEMINLGSIDTKLDTDPARGSRDTITRQSAAKTKTFTRIRFSPDGNLLLAGGESNNFCLYSVPERMILKKWQITANRSLDGVILDFNRRNFTEFGNMQLVDTSDEEDELEPNNKMSIKLPGTKNFDLGERRARPEVNIYEVTYCPTGRRFAICSTEGVSVYSLDTISMFDPFQLDSQTNAEVIKRAVWNNDYSTAIMASLRLNNAQYITECLESTSISQIPLVASSLPLMYAERLLKWMVEGNVMSSTRHVHFYMIWLRAILQHHGMQLKGRADVATLTGIQQIVAHHQQHITKLANQNKFALNWLVKIRQSKKSVKKEEEEEEDVSDESDDEDIEDESAGSDDEDSDDSVEIIE | not soluble |
| MGSDKIHHHHHHMEINKIYCMDCLEGMKQLKDKTVDVVVTSPPYNIGIKYNKYSDNLSREDYLNWIEEVVKEIKRVLKDDGSFFINVGYTAKDPWIAFDVANVIRKHFKLQNTIHWVKSIAIQKEDVGNYPNIIGDIAVGHYKPINSDRFLSIMHEYIFHFTKNGNVKLDKLAIGVPYQDKSNIKRFNRKGDLRDRGNTWFIPYETIQSKEKERPHPATFPPKLPEMCIKLHGVKKTNLVLDPFMGIGSTAIACIRLGIDYIGFEIDEYYCRVAEERIKKELLKTDGKFDNVKNKNIITLDAFI | not soluble |
| MSDSASNTENSIQIEIFPSRILSPETAQKLLVELSQVDGILRVMIQGNRLPEKVGYGPGTGEKVEHPLRKPIQIGGQVIELRVSVGRIRLEVLNAEVKENVRAVCEKMLPFSFEFREGHFLRRKPTVTDYAKLGPEADPRLLGMVDPKAKINQLVFILEHHHHHH | not soluble |
| MYRSHFIADVTPEYDGKEVIWAGWVHLLRDLGGKKFIILRDKTGLGQVVVDKNSSAFGISQELTQESVIQVRGIVKADKRAPRGIELHAEEITLLSKAKAPLPLDVSGKVKADIDTRLRERVLDLRRQEMQAVIKIQSLALKAFRETLYKEGFIEIFTPKIIASATEGGAQLFPVIYFGKEAFLAQSPQLYKELMAGVVERVFEVAPAWRAEESDTPFHLAEFISMDVEMAFADYNDVMQLLEKILHNIVKTIKEEGKEELKILNYEPPEVKIPIKRLKYTEAIEILRSKGYNIKFGDDIGTPELRILNEELKEDLYFIVDWPSDARPFYTKSKSENPELSESFDLIYKFLEIVSGSTRNHKREVLEEALKKKGLKPESFEFFLKWFDYGMPPHAGFGMGLARLMVMLTGIQSVKEIVPFPRDKKRLTP | soluble |
| MGSDKIHHHHHHMTALDFLPNPPIKQELITPLFHLPYPNPSPIDPKVYKEQSNQAKALAQVFKKEEAHDFDYSSGSFLELFLALALEKKKLAIASSLHYNALKAAREVQKLGIEIFWLHPDVKSGVIEPNSLQEARTRGFELFFLPWANEDLLTLNPLESYGFSLDERLFVEASYPLALGIALPLLEKAHWLINGEILGIPRGYGAILGGEIPLHRPLMRANLFGVLHAALKAREILIENDDQKTLFYEHLSALLGENLSLFAPLKSCLPNALPLRFKGIRARSLIQALLLEKITSLNGQECLFGFSKPSSVLQSMGYDEDEARELLSVSFLPFGSIEELERIAKILALRYKQIHLYS | not soluble |
| IVMQFPREEYFAPGHRGCAGCGAAIVARLLLKVAGKDTIITNATGCLEVMTTPYPETSWRVPWIHTAFENAAATASGIEAAVKALKRKRGKFADKKINVIAIGGDGGTADIGFQALSGAMERGHDILYIMYDNEAYMNTGIQRSSSTPFMAATTTSPAGSKIRGEDRPKKDMTMIMAAHGIPYVATACISYPEDFMRKVKKALSIEGPKFIQVLQPCTTGWGYPPEKTIEIGRLAVETGIFPLYEIENGEFRITYKPAKRKPVREYLKMQKRYRHLTDEDIERIQKYIDEKCKLLGL | not soluble |
| MAIIYAVRERTQSKTAMRKVMDYVVQDKKTMYENENGQRCKLVSGQNCCGDTAFKEFMTTKRQYQKEKGVYFYQYIQSFKPGIHATPQEIHQMGVELAKYFKGYEVQIATHIDRDHWHNHLIVNSVSCETGLKLQFNEKNLEQLRTLSDEICAVHGLDTLKPYQKPKQKPMGAGEYRAAVRGGSYKFKLMNAIDQAMTQSRTREEFIVRMEQMGYQVKWNPHHKYITYTTPEGQRCRDNKLHETKYLKTEMEGYFSAKLRRIEAAQQAGYTGGHPTGTTPADRSSALSAAGQRNTHRPMEHDAGEPDRSHTAVAGIDGIHIHPANRRRRKQYDEELLPERLRQADGSPVEYHTERASADYGEYDFEYGEDDGYDWMEADEYTGALGRKAPAPGHVAHKNESQMGRHRGIDFDDIVALAKAVDDLVNPYNPEEEREKKKKYVPKSDHKKQKKKQHHNHDYELSL | soluble |
| RFEPSFLDKLFDDEPHVPAPAAMRQLSLEELKNTVARDVEAILNTRIALTEEDLAALPECQRSVLTYGLNDFAGLSLASHYDRTFICKSIQQAIARHEPRLQQVQVTFELNEQSTNALYFAIQALLVVHPAEEPVTFDAMLQPS | not soluble |
| GPGSMNLGHAAASSIVVKVAELAKKAFYRLKISSAYSSKLTEAVGTALMSADPEVPVDPNRRSGGHVIRNMIYQHDSSHNIEIVTGWKDQGTREYNQQIAPPAKLDLSPKHPCYPLNEQLVRCSLECPMEMKLAGRIASCNSERKNLMVCLTKNKSWKEEPASAWYKFF | not soluble |
| MSLKNLPIGGVWKGKVKLHSNSPAQDYFANITLNTLDPNHIDVFFPEFAHATPRVQLDLHPTGSVNGSNYAQDLTMLDMCLYDGFNGNAISYEIMLKDEGRPAAGRRDGYFSIYRQGGTTTDEGERIDYRVKMYNPETGGQIDVRNNENMVWNSINLKRVRPVVLPGIRYAVMCVPTPLTLAVDKFSVMDKQAGYYMGKLSVIFTPSLPTINEGHHHHHH | soluble |
